Measurements published in article PMC10786891, “Massively parallel profiling of RNA-targeting CRISPR-Cas13d”.

T1: EsCas13d, nuclease-dead (Eubacterium siraeum, UniProt B0MS50, R295A;H300A;R849A;H854A)
T1 sequence: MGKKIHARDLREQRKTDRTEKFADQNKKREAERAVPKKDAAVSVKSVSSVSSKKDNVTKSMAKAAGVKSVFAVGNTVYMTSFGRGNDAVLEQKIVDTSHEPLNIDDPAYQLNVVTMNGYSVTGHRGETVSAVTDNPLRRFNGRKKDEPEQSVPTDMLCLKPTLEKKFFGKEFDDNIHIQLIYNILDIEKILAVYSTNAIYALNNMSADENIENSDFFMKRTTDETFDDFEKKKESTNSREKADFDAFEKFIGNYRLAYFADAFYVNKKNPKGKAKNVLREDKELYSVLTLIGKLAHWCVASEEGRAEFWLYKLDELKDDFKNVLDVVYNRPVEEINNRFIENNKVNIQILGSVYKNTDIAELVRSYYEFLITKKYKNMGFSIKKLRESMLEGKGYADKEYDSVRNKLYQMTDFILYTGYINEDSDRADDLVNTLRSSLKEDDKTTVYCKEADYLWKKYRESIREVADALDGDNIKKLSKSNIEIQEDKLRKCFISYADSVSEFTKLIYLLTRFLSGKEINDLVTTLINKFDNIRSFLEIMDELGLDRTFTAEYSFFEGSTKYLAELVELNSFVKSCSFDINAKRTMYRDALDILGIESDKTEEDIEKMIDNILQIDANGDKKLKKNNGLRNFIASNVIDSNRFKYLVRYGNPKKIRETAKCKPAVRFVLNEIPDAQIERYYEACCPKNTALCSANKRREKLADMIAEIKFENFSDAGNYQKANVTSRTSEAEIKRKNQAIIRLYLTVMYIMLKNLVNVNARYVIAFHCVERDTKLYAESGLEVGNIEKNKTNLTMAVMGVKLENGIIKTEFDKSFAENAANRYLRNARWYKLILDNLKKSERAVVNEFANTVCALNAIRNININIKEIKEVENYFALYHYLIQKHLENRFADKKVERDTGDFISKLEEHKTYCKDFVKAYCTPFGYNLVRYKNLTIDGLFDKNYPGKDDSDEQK


Biological target: T1, EsCas13d, nuclease-dead
Assay: crRNA (strand 1, pre-loaded); Mg2+; 40 mM Tris-HCl pH 7.5, 150 mM NaCl, 6 mM MgCl2, 1 mM DTT, 0.1% Tween-20, 0.2 mg/ml BSA; 25 C; 10 min per concentration, then washed
Conditions: tags: His6-TwinStrep-SUMO cleaved; N-terminal SNAP kept (SNAP-Surface 488); label: 3' end held by stalled T7 RNA polymerase

Binder | Kd [nM]
target 1 insG 3' of 18,insC 3' of 3 (mixed) RNA 1: CACCCGUGCAAAAAUGCAGGGGUCUAAAACUGAGCGGAUAACCUCUCUAUGG RNA 2: GGGAAUGGAUCCACAUCUACGAAUUCGUACCAUAGGAGAGGUUAUCCGCUCCACCGAGAUCGGAAGAGCACACGU | 80 ± 9
target 1 insA 3' of 11,insU 3' of 9 (mixed) RNA 1: CACCCGUGCAAAAAUGCAGGGGUCUAAAACUGAGCGGAUAACCUCUCUAUGG RNA 2: GGGAAUGGAUCCACAUCUACGAAUUCGUACCAUAGAGAGGUAUAUUCCGCUCACCGAGAUCGGAAGAGCACACGU | 27.8 ± 2.2
target 1 U8G,A18U (mixed) RNA 1: CACCCGUGCAAAAAUGCAGGGGUCUAAAACUGAGCGGAUAACCUCUCUAUGG RNA 2: GGGAAUGGAUCCACAUCUACGAAUUCGUACCAUUGAGAGGUUAGCCGCUCACCGAGAUCGGAAGAGCACACGU | 80 ± 19
target 1 insC 3' of 14,insA 3' of 6 (mixed) RNA 1: CACCCGUGCAAAAAUGCAGGGGUCUAAAACUGAGCGGAUAACCUCUCUAUGG RNA 2: GGGAAUGGAUCCACAUCUACGAAUUCGUACCAUAGAGACGGUUAUCCAGCUCACCGAGAUCGGAAGAGCACACGU | 56 ± 12
target 1 insA 3' of 21,insU 3' of 21 (mixed) RNA 1: CACCCGUGCAAAAAUGCAGGGGUCUAAAACUGAGCGGAUAACCUCUCUAUGG RNA 2: GGGAAUGGAUCCACAUCUACGAAUUCGUACCAUAUAGAGAGGUUAUCCGCUCACCGAGAUCGGAAGAGCACACGU | 9.1 ± 0.5
target 1 insA 3' of 19,insG 3' of 1 (mixed) RNA 1: CACCCGUGCAAAAAUGCAGGGGUCUAAAACUGAGCGGAUAACCUCUCUAUGG RNA 2: GGGAAUGGAUCCACAUCUACGAAUUCGUACCAUAAGAGAGGUUAUCCGCUCAGCCGAGAUCGGAAGAGCACACGU | 20 ± 1.3
target 1 insA 3' of 19,insA 3' of 2 (mixed) RNA 1: CACCCGUGCAAAAAUGCAGGGGUCUAAAACUGAGCGGAUAACCUCUCUAUGG RNA 2: GGGAAUGGAUCCACAUCUACGAAUUCGUACCAUAAGAGAGGUUAUCCGCUCAACCGAGAUCGGAAGAGCACACGU | 19.9 ± 2.1
target 1 insC 3' of 18,insA 3' of 12 (mixed) RNA 1: CACCCGUGCAAAAAUGCAGGGGUCUAAAACUGAGCGGAUAACCUCUCUAUGG RNA 2: GGGAAUGGAUCCACAUCUACGAAUUCGUACCAUACGAGAGGAUUAUCCGCUCACCGAGAUCGGAAGAGCACACGU | 80 ± 22
target 1 insA 3' of 19,insC 3' of 1 (mixed) RNA 1: CACCCGUGCAAAAAUGCAGGGGUCUAAAACUGAGCGGAUAACCUCUCUAUGG RNA 2: GGGAAUGGAUCCACAUCUACGAAUUCGUACCAUAAGAGAGGUUAUCCGCUCACCCGAGAUCGGAAGAGCACACGU | 18.6 ± 2.4
target 1 insU 3' of 9,insU 3' of 7 (mixed) RNA 1: CACCCGUGCAAAAAUGCAGGGGUCUAAAACUGAGCGGAUAACCUCUCUAUGG RNA 2: GGGAAUGGAUCCACAUCUACGAAUUCGUACCAUAGAGAGGUUAUUCUCGCUCACCGAGAUCGGAAGAGCACACGU | 25.4 ± 1.3
target 1 insC 3' of 20,insA 3' of 8 (mixed) RNA 1: CACCCGUGCAAAAAUGCAGGGGUCUAAAACUGAGCGGAUAACCUCUCUAUGG RNA 2: GGGAAUGGAUCCACAUCUACGAAUUCGUACCACUAGAGAGGUUAUACCGCUCACCGAGAUCGGAAGAGCACACGU | 9.6 ± 0.5
target 1 A16U,G17C (mixed) RNA 1: CACCCGUGCAAAAAUGCAGGGGUCUAAAACUGAGCGGAUAACCUCUCUAUGG RNA 2: GGGAAUGGAUCCACAUCUACGAAUUCGUACCAUACUGAGGUUAUCCGCUCACCGAGAUCGGAAGAGCACACGU | 87 ± 23
target 1 C4A,A14U (mixed) RNA 1: CACCCGUGCAAAAAUGCAGGGGUCUAAAACUGAGCGGAUAACCUCUCUAUGG RNA 2: GGGAAUGGAUCCACAUCUACGAAUUCGUACCAUAGAGUGGUUAUCCGAUCACCGAGAUCGGAAGAGCACACGU | ~60
